Read-outs that look alike come from different tables or passages of the source.
What was measured:
[1] = target: FakA H282A, H284A (Staphylococcus aureus) (Staphylococcus aureus); test: mass photometry
[2] = target: FakA H282A, H284A (Staphylococcus aureus) (Staphylococcus aureus); test: mass photometry; remark: listed apart in the source
[3] = target: Fatty acid kinase FakA (Staphylococcus aureus), wild type (Staphylococcus aureus); test: mass photometry
[4] = target: Fatty acid kinase FakA (Staphylococcus aureus), wild type (Staphylococcus aureus); test: mass photometry; remark: listed apart in the source
[5] = target: His-tagged FakB2 (Staphylococcus aureus) (Staphylococcus aureus); test: BLI
[6] = target: Fatty acid kinase FakA (Staphylococcus aureus), wild type (Staphylococcus aureus); test: SEC-SAXS

Substance | percent of the protein in the dimer peak [1] [%] | percent of the protein in the dimer peak [2] [%] | percent of the protein in the dimer peak [3] [%] | stoichiometry N [3] | percent of the protein in the dimer peak [4] [%] | Kd [5] [nM] | stoichiometry N [6]
FakA H282A, H284A (Staphylococcus aureus) (enzyme) | 24 | 63 | – | – | – | – | –
Fatty acid kinase FakA (Staphylococcus aureus), wild type (enzyme) | – | – | 77 | 2 | 57 | 4.34 | 2

Reference: doi:10.1101/2024.03.19.585040
